Paper PMC3730827 (Cell, 2013)

Experiments:
Test in all cases: cryo-EM structure
[1] = target: ribosomal protein S3e (rabbit 40S subunit) (rabbit, UniProt G1TNM3 1-243)
[2] = target: ribosomal protein S23e (rabbit 40S subunit) (rabbit, UniProt G1SZ47 1-143)
[3] = target: ribosomal protein S10e (rabbit 40S subunit) (rabbit, UniProt G1T168 1-165)
[4] = target: ribosomal protein S12e (rabbit 40S subunit) (rabbit, UniProt G1SFR8 1-132)

binding result [1]: binds
binding result [2]: binds
binding result [3]: binds
binding result [4]: binds
B1: DHX29, recombinant human (enzyme)
chain: MGGKNKKHKAPAAAVVRAAVSASRAKSAEAGIAGEAQSKKPVSRPATAAAAAAGSREPRVKQGPKIYSFNSTNDSSGPANLDKSILKVVINNKLEQRIIGVINEHKKQNNDKGMISGRLTAKKLQDLYMALQAFSFKTKDIEDAMTNTLLYGGDLHSALDWLCLNLSDDALPEGFSQEFEEQQPKSRPKFQSPQIQATISPPLQPKTKTYEEDPKSKPKKEEKNMEVNMKEWILRYAEQQNEEEKNENSKSLEEEEKFDPNERYLHLAAKLLDAKEQAATFKLEKNKQGQKEAQEKIRKFQREMETLEDHPVFNPAMKISHQQNERKKPPVATEGESALNFNLFEKSAAATEEEKDKKKEPHDVRNFDYTARSWTGKSPKQFLIDWVRKNLPKSPNPSFEKVPVGRYWKCRVRVIKSEDDVLVVCPTILTEDGMQAQHLGATLALYRLVKGQSVHQLLPPTYRDVWLEWSDAEKKREELNKMETNKPRDLFIAKLLNKLKQQQQQQQQHSENKRENSEDPEESWENLVSDEDFSALSLESANVEDLEPVRNLFRKLQSTPKYQKLLKERQQLPVFKHRDSIVETLKRHRVVVVAGETGSGKSTQVPHFLLEDLLLNEWEASKCNIVCTQPRRISAVSLANRVCDELGCENGPGGRNSLCGYQIRMESRACESTRLLYCTTGVLLRKLQEDGLLSNVSHVIVDEVHERSVQSDFLLIILKEILQKRSDLHLILMSATVDSEKFSTYFTHCPILRISGRSYPVEVFHLEDIIEETGFVLEKDSEYCQKFLEEEEEVTINVTSKAGGIKKYQEYIPVQTGAHADLNPFYQKYSSRTQHAILYMNPHKINLDLILELLAYLDKSPQFRNIEGAVLIFLPGLAHIQQLYDLLSNDRRFYSERYKVIALHSILSTQDQAAAFTLPPPGVRKIVLATNIAETGITIPDVVFVIDTGRTKENKYHESSQMSSLVETFVSKASALQRQGRAGRVRDGFCFRMYTRERFEGFMDYSVPEILRVPLEELCLHIMKCNLGSPEDFLSKALDPPQLQVISNAMNLLRKIGACELNEPKLTPLGQHLAALPVNVKIGKMLIFGAIFGCLDPVATLAAVMTEKSPFTTPIGRKDEADLAKSALAMADSDHLTIYNAYLGWKKARQEGGYRSEITYCRRNFLNRTSLLTLEDVKQELIKLVKAAGFSSSTTSTSWEGNRASQTLSFQEIALLKAVLVAGLYDNVGKIIYTKSVDVTEKLACIVETAQGKAQVHPSSVNRDLQTHGWLLYQEKIRYARVYLRETTLITPFPVLLFGGDIEVQHRERLLSIDGWIYFQAPVKIAVIFKQLRVLIDSVLRKKLENPKMSLENDKILQIITELIKTENN
